{
  "source": "patent US20020164721A1",
  "about": "“Design of a polyepitopic construct for the induction of HLA-A2.1 restricted HIV 1 specific CTL responses using HHD mice” (priority 1999, published 2002)",
  "key": {"[1]": {"target": "T1, HLA-A2.1 molecules on T2 (TAP-, HLA-A2.1+) cells (human)", "assay": "T2 cells, HLA-A2.1 stabilisation, BB7.2 immunofluorescence FACS"}, "[2]": {"target": "T1, HLA-A2.1 molecules on T2 (TAP-, …)", "assay": "T2 cells, decay of surface peptide-HLA-A2.1 complexes, FACS"}, "[3]": {"target": "T1, HLA-A2.1 molecules on T2 (TAP-, …)", "assay": "T2 cells, HLA-A2.1 stabilisation, indirect immunofluorescence FACS"}},
  "data": [
    {"binder": "ILTVILGVL (modifications not checked)", "note": "[Melan-A/MART-1.32]", "values": [
      {"measurement": "relative affinity (RA) (ratio to reference peptide HIV 1 rt.476)", "setting": "[1]", "result": 21.1}
    ]},
    {"binder": "YMNGTMSQV (modifications not checked)", "note": "[Tyrosinase.368-N]", "values": [
      {"measurement": "relative affinity (RA) (ratio to reference peptide HIV 1 rt.476)", "setting": "[1]", "result": 2.2},
      {"measurement": "DC50 (half-life of peptide-HLA-A2.1 complexes)", "setting": "[2]", "result": "> 8", "unit": "h"}
    ]},
    {"binder": "IISAVVGIL (modifications not checked)", "note": "[Her2/neu.654]", "values": [
      {"measurement": "DC50 (half-life of peptide-HLA-A2.1 complexes)", "setting": "[2]", "result": 4, "unit": "h"}
    ]},
    {"binder": "KLTPLCVSL (modifications not checked)", "note": "[K9L]", "values": [
      {"measurement": "relative affinity (RA) (ratio to reference peptide I9V)", "setting": "[3]", "result": 1.35},
      {"measurement": "DC50 (half-life of peptide-HLA-A2.1 complexes)", "setting": "[2]", "result": "> 6", "unit": "h"}
    ]},
    {"binder": "MLLAVLYCL (modifications not checked)", "note": "[Tyrosinase.1]", "values": [
      {"measurement": "relative affinity (RA) (ratio to reference peptide HIV 1 rt.476)", "setting": "[1]", "result": "> 60"}
    ]},
    {"binder": "RMPEAAPPV (modifications not checked)", "note": "[p53.65]", "values": [
      {"measurement": "relative affinity (RA) (ratio to reference peptide HIV 1 rt.476)", "setting": "[1]", "result": 0.91}
    ]},
    {"binder": "LLDGTATLRL (modifications not checked)", "note": "[gp100.457]", "values": [
      {"measurement": "relative affinity (RA) (ratio to reference peptide HIV 1 rt.476)", "setting": "[1]", "result": 1.65}
    ]},
    {"binder": "FLWGPRALV (modifications not checked)", "note": "[MAGE-3.271]", "values": [
      {"measurement": "DC50 (half-life of peptide-HLA-A2.1 complexes)", "setting": "[2]", "result": 6, "unit": "h"}
    ]},
    {"binder": "VLYRYGSFSV (modifications not checked)", "note": "[gp100.476]", "values": [
      {"measurement": "relative affinity (RA) (ratio to reference peptide HIV 1 rt.476)", "setting": "[1]", "result": 10}
    ]},
    {"binder": "YMDGTMSQV (modifications not checked)", "note": "[Tyrosinase.368-D]", "values": [
      {"measurement": "relative affinity (RA) (ratio to reference peptide HIV 1 rt.476)", "setting": "[1]", "result": 2.27},
      {"measurement": "DC50 (half-life of peptide-HLA-A2.1 complexes)", "setting": "[2]", "result": "> 6", "unit": "h"}
    ]},
    {"binder": "LLDTGADDTV (modifications not checked)", "note": "[L10V]", "values": [
      {"measurement": "relative affinity (RA) (ratio to reference peptide I9V)", "setting": "[3]", "result": 10},
      {"measurement": "DC50 (half-life of peptide-HLA-A2.1 complexes)", "setting": "[2]", "result": "< 2", "unit": "h"}
    ]},
    {"binder": "VLPDVFIRC (modifications not checked)", "note": "[NA17-A.nt38]", "values": [
      {"measurement": "relative affinity (RA) (ratio to reference peptide HIV 1 rt.476)", "setting": "[1]", "result": 1.52},
      {"measurement": "DC50 (half-life of peptide-HLA-A2.1 complexes)", "setting": "[2]", "result": "> 8", "unit": "h"}
    ]}
  ]
}
